Data set [1] concerns the target T1, GST-OsWRKY76 (Oryza sativa, UniProt Q6EPZ2 1-327).
T1 sequence: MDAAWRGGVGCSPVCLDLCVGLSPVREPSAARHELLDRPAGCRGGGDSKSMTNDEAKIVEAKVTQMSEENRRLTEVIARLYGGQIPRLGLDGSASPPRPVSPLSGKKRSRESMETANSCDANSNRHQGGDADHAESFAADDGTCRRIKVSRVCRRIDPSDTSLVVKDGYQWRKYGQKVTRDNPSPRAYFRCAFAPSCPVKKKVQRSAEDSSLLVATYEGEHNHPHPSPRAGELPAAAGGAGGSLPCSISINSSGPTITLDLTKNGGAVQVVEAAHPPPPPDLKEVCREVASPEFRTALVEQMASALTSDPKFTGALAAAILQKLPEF
Briefly: competition; 10x and 50x molar excess of unlabeled probe reduced the N1 shift; EMSA as in Gao et al. 2019; buffer, salt, pH and temperature not stated. The note with it: protein: recombinant; tags: N-terminal GST (pGEX-4T-3); blunt. A general note: Mobility shift assays separate free from complexed probe on a gel.

In data set [2] the target is T1, GST-OsWRKY76. Briefly: EMSA; EMSA as in Gao et al. 2019; buffer, salt, pH and temperature not stated. As to conditions: protein: recombinant; tags: N-terminal GST (pGEX-4T-3); label: 6-FAM 5' end (strand(s) not specified); blunt.

B1: OsDREB1E unlabeled competitor probe (dsDNA)
DNA 1: GCACGGGTAGTTTTGACCTATAGGAGTGTA
DNA 2: TACACTCCTATAGGTCAAAACTACCCGTGC
With B1, the binding result with GST-OsWRKY76 [1] was “binds”.

B2: OsDREB1E probe (6-FAM) (dsDNA)
DNA 1: B1 DNA 1
DNA 2: B1 DNA 2
B2: the binding result with GST-OsWRKY76 [2] is on record as “binds”.

The values above are taken from article PMC10113545, “OsWRKY76 positively regulates drought stress via OsbHLH148-mediated jasmonate signaling in rice”.
